Measured values: patent US11406618B2, “Polymer-des-ethyl sunitinib conjugates” (Nektar Therapeutics, priority 2010, dated 2022)

Assay: Buffer hydrolysis in phosphate buffer to monitor the release of des-ethyl sunitinib
Type: physicochemical
Details: 100 mM phosphate, 37° C.
Description: In a 10 mL round bottom flask was added (Z)—(N-(2-aminoethyl)-9-(hydroxymethyl)-9H-fluorene-2-carboxamide hydrochloride) ethyl(2-(5-((5-fluoro-2-oxoindolin-3-ylidene)methyl)-2,4-dimethyl-1H-pyrrole-3-carboxamido)ethyl)carbamate dihydrochloride (Compound 2a) (4.83 mg, 6.42 μmol). The solids were dissolved in anhydrous tetrahydrofuran (0.4 mL) and 1,4 dioxane (0.2 mL). mPEG-SPA 20K (100.4 mg, 5.02 μmol) was added. Anhydrous acetonitrile (0.2 mL) was added to dissolve the PEG. After the PEG dissolved, triethylamine (5.2 μL, 0.037 mmol) was added. At 1 hour, the reaction solvent was evaporated at reduced pressure to a dry solid. The product was redissolved in anhydrous acetonitrile (0.5 mL) and precipitated by slow addition of anhydrous IPA (8 mL total). The product was washed with anhydrous IPA (50 mL) and diethyl ether. Residual solvent was evaporated at reduced pressure. Yield was 75 mg yellow powder (75% yield). HPLC analysis was on C18 applying an acetonitrile gradient with 0.1% TFA; retention times were desethyl sunitinib (compound 1) 2.5 minutes and product at 10.7 minutes. Buffer hydrolysis was performed to monitor the release of des-ethyl sunitinib (100 mM phosphate, 37° C.): 36 days at pH 7.5, 3.6 days at pH 8.5.
In a 10 mL round bottom flask was added Compound 2b (9.6 mg, 0.013 mmol). The solids were suspended in anhydrous acetonitrile (0.37 mL) and 1,4 dioxane (0.37 mL). mPEG-SPA 20K (181.3 mg, 9.07 μmol) was added. After the PEG dissolved, triethylamine (9.24 μL, 0.066 mmol) was added. At one hour, the product was precipitated by slow addition of anhydrous IPA (10 mL). The solid was washed with anhydrous IPA (25-30 mL) and then washed with diethyl ether. Residual solvent was evaporated at reduced pressure. Yield was ˜120 mg yellow powder. The product was transferred to a 50 mL round bottom flask. More Compound 2b (6.9 mg, 9.18 μmol) was added. Anhydrous acetonitrile (0.25 mL) and anhydrous 1,4 dioxane (0.25 mL) and anhydrous pyridine (2.2 μL, 0.027 mmol) were added. The reagents never fully dissolved, therefore triethylamine (6 μL, 0.043 mmol) was added. The solution was a clear orange color. After 45 minutes, the product was precipitated by slow addition of anhydrous IPA (˜10 mL). The solid was washed with anhydrous IPA (˜25-30 mL) and then washed with diethyl ether. Residual solvent was evaporated at reduced pressure. Yield was ˜68 mg (57%) yellow powder. HPLC analysis was on C18 applying an acetonitrile gradient with 0.1% TFA; retention times were desethyl sunitinib (compound 1) 2.5 min and product at 10.7 min. Buffer hydrolysis was performed to monitor the release of des-ethyl sunitinib (100 mM phosphate, 37° C.): 22 days at pH 7.5, 1.4 days at pH 8.5.
Experiments were carried out to measure drug release from the polymer conjugates. A typical plot of the data showing the decay of the polymer conjugate (FIG. 1) and the build-up of drug with time (FIG. 2) are included.
In a 10 mL round bottom flask was Compound 2c (7.4 mg, 7.69 μmol) was suspended in anhydrous dioxane (0.5 mL) and anhydrous acetonitrile (0.5 mL). mPEG-SPA 20K (100.0 mg, 5.0 μmol) was added. After the PEG dissolved, triethylamine (7.2 μL, 0.052 mmol) was added. At thirty minutes, anhydrous acetonitrile (0.5 mL) and anhydrous methanol (0.3 mL) were added. At two hours total reaction time, the product was precipitated by slow addition of anhydrous IPA containing 0.25% phosphoric acid. The product was washed with anhydrous IPA and then washed with diethyl ether. Residual solvent was evaporated at reduced pressure. Yield: 58 mg (58%) yellow powder. HPLC analysis employed a C18 column using an acetonitrile gradient with 0.1% TFA; retention times were des-ethyl sunitinib 2.5 min and product 10.7 minutes with 41% purity at 320 nm. Buffer hydrolysis was done to monitor the release of desethyl sunitinib (100 mM phosphate, 37° C.): 11 d at pH 7.5, 1.7 d at pH 8.5.

Row | Substance | Buffer hydrolysis, release of des-ethyl sunitinib at pH 7.5 (pH 7.5) | Buffer hydrolysis, release of des-ethyl sunitinib at pH 8.5 (pH 8.5) | Buffer hydrolysis, release of desethyl sunitinib at pH 7.5 (pH 7.5) | Buffer hydrolysis, release of desethyl sunitinib at pH 8.5 (pH 8.5)
1 | (Z)-(9-(hydroxymethyl)-N-(2-β-(mPEG 20,000)propanamido)ethyl)-9H-fluorene-2-carboxamide) ethyl(2-(5-((5-fluoro-2-oxoindolin-3-ylidene)methyl)-2,4-dimethyl-1H-pyrrole-3-carboxamido)ethyl)carbamate [Compound 3a] | 36 days | 3.6 days | – | –
2 | (Z)-(9-(hydroxymethyl)-N-(2-β-(mPEG 20,000)propanamido)ethyl)-9H-fluorene-4-carboxamide) ethyl(2-(5-((5-fluoro-2-oxoindolin-3-ylidene)methyl)-2,4-dimethyl-1H-pyrrole-3-carboxamido)ethyl)carbamate [Compound 3b] | 22 days | 1.4 days | – | –
3 | (Z)-(9-(hydroxymethyl)-N2-(2-(2-(2-methoxyethoxy)ethoxy)ethyl)-N7-(2-β-(2-(mPEG 20,000))propanamido)ethyl)-9H-fluorene-2,7-dicarboxamide) ethyl(2-(5-((5-fluoro-2-oxoindolin-3-ylidene)methyl)-2,4-dimethyl-1H-pyrrole-3-carboxamido)ethyl)carbamate [Compound 3c] | – | – | 11 d | 1.7 d
